# Measured values reported in publication PMC4026020.
# T1: MBP-AtTZF1 RR-TZF C101R/C136R/C171R (Arabidopsis thaliana, UniProt O82307 86-195, C101R;C136R;C171R)
# T1 sequence: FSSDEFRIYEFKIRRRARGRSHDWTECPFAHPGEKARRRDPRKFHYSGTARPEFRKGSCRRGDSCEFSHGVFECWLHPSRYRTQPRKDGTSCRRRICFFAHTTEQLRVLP
# T2: MBP-AtTZF1 RR-TZF C101R (Arabidopsis thaliana, UniProt O82307 86-195, C101R)
# T2 sequence: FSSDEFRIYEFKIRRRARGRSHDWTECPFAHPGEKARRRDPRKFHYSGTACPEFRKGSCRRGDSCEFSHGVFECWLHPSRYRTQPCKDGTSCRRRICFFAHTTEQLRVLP
# T3: MBP-AtTZF1 RR-TZF C136R/C171R (Arabidopsis thaliana, UniProt O82307 86-195, C136R;C171R)
# T3 sequence: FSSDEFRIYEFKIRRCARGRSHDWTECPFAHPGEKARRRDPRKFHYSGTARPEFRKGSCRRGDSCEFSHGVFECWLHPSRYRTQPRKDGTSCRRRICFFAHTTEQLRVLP
# T4: MBP-AtTZF1 RR;MBP-AtTZF1 TZF (Arabidopsis thaliana;Arabidopsis …, UniProt O82307;O82307 86-128;129-195, |)
# T4 sequence 1: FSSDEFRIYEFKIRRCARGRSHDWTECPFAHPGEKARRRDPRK
# T4 sequence 2: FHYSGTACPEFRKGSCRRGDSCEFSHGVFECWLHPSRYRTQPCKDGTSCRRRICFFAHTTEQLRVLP
# Key:
# Test in all cases: fluorescence anisotropy
# [1] = target: T1, MBP-AtTZF1 RR-TZF C101R/C136R/C171R
# MBP-AtTZF1 RR-TZF C101R = target: T2, MBP-AtTZF1 RR-TZF C101R
# [2] = target: T3, MBP-AtTZF1 RR-TZF C136R/C171R
# [3] = target: T4, MBP-AtTZF1 RR;MBP-AtTZF1 TZF
Binder,Kd [1],Kd (MBP-AtTZF1 RR-TZF C101R),Kd [2],Kd [3]
UUUUUUUUUUUUUUUUUUU (ssRNA) [Fl-polyU],3110 ± 80 nM,810 ± 40 nM,1610 ± 40 nM,4400 ± 100 nM
UAUUUAUUAUUUAUUUAUU (ssRNA) [Fl-ARE19],–,–,1540 ± 50 nM,610 ± 40 nM
